The values below come from publication PMC2568859, “Hybrids of the bHLH and bZIP Protein Motifs Display Different DNA-Binding Activities In Vivo vs. In Vitro”.

Data set [1] concerns the target T1, ArntbHLH (Homo sapiens (isoform variant 3), UniProt P27540-2 65-130). The data set can be described thus: fluorescence anisotropy; Buffer C (no additives, 1.0 ug/mL poly dI-dC); single isotherm, plateau not reached; Hill ~2; Buffer B: 100 mM Tris pH 7.4, 150 mM NaCl, 1 mM EDTA, 200 mM guanidine-HCl, 20% glycerol, 0.1 mg/mL acetylated BSA, 100 uM bp calf thymus DNA; 1 nM duplex; overnight 4 C then 22 C. Buffer C: 100 mM Tris pH 7.4, 150 mM NaCl, 1 mM EDTA, 1.0 ug/mL poly dI-dC. Buffer A: phosphate pH 7.4, 150 mM NaCl, …. The following applies: protein: recombinant; chain copies: 2; label: 5' 6-FAM on one strand; 24-mer duplex.

For data set [2], the target named is T2, ArntbHLH-C/EBP (Homo sapiens (Arnt isoform variant 3) / …, UniProt P27540-2 65-130+=RIR+P05554:317-345, internal_change). Described as above. Particulars: protein: recombinant; (pET-28A(+), TALON purified); chain copies: 2; label: 5' 6-FAM on one strand; 24-mer duplex.
T2 sequence (P27540 other isoform, or with tags, fused parts or gaps): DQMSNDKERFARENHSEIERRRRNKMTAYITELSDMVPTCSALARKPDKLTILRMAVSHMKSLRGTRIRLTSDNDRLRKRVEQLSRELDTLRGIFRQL
For data set [3], the target named is T1, ArntbHLH. The data set can be described thus: fluorescence anisotropy; up to 1 uM monomeric protein; data not shown; Buffer B: 100 mM Tris pH 7.4, 150 mM NaCl, 1 mM EDTA, 200 mM guanidine-HCl, 20% glycerol, 0.1 mg/mL acetylated BSA, 100 uM bp calf thymus DNA; 1 nM duplex; overnight 4 C then 22 C. Buffer C: 100 mM Tris pH 7.4, 150 mM NaCl, 1 mM EDTA, 1.0 ug/mL poly dI-dC. Buffer A: phosphate pH 7.4, 150 mM NaCl, 2.7 mM KCl, 1 mM EDTA, 800 mM urea, 20% glycerol, …. Particulars: protein: recombinant; chain copies: 2; label: 5' 6-FAM on one strand; 24-mer duplex.

Data set [4] addresses T2, ArntbHLH-C/EBP. The data set is described as above. The following applies: protein: recombinant; (pET-28A(+), TALON purified); chain copies: 2; label: 5' 6-FAM on one strand; 24-mer duplex.

T1 sequence (P27540 other isoform, or with tags, fused parts or gaps): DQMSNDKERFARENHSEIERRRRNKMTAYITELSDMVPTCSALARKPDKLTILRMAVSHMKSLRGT

B1: E-box 24-mer duplex (dsDNA)
DNA 1: TGCAGGAATCACGTGATGAAGGTT
DNA 2: AACCTTCATCACGTGATTCCTGCA
For the molecule B1, the Kd with ArntbHLH [1] and with ArntbHLH-C/EBP [2] was roughly 350 nM throughout.

B2: nonspecific 24-mer duplex (dsDNA)
DNA 1: TGCAGGAATTCCAAGGTGAAGGTT
DNA 2: AACCTTCACCTTGGAATTCCTGCA
In the case of B2, the binding result with ArntbHLH [3] and with ArntbHLH-C/EBP [4] was “no binding” each time.
